Measurements from patent publication US20260224621A1.

Tests used:
[1] = target: CD20 on Raji lymphocyte cells and primary CLL cells (human) (UniProt P11836); assay: cell-based or functional assay
[2] = target: CD19 on Raji cells, primary CLL cells and melanoma cell lines made to overexpress CD19 (UniProt P15391); assay: cell-based or functional assay

Row | Substance | specific killing of Raji cells by YTS cells expressing CD16 (ADCC), 3 hours [1] | specific killing of Raji cells 24 hours after coculture, YTS CAR-CD19 cells (non-irradiated, 1000, 2500 or 3000 cGy) [2] | specific killing of Raji cells by YTS cells expressing CAR-CD19 [2] | specific killing of Raji cells, same day (2-3 hours), YTS CAR-CD19 cells irradiated with 1000 cGy [2] | specific killing of Raji cells, same day (2-3 hours), YTS CAR-CD19 cells irradiated with 2500 cGy [2] | specific killing of Raji cells, same day (2-3 hours), non-irradiated YTS CAR-CD19 cells [2]
1 | Rituximab (anti-CD20) (antibody) | > 60% | – | – | – | – | –
2 | anti-CD19 CAR FMC63-28-3z (FMC63 scFV against CD19, CD28 costimulatory domain, CD3zeta signaling domain; Addgene #135991), expressed on YTS cells (from UniProt P10747 180-220; P20963 52-164) | – | > 55% | > 50% | 25% | 23% | 18%
